# According to patent US20240376205A1 (Hoffmann-La Roche, published 2024):
# Legend:
# [1] = biological target: T1, OneArmed-huPD-L1_ECD_Fc_LALAPG (P1AF6937) (human, UniProt Q9NZQ7 18-238); test: SPR, Dutaflip Fab fragment without IFN-α2 fusion, analyte P1AF6937
# T1 construct: range 18-238; also called huPD-L1-Fc; huPD-L1(ECD)-huFc
# [2] = biological target: T2, OneArmed-cyPD-L1_ECD_Fc_LALAPG_avi_his (P1AF6938) (cynomolgus); test: SPR, Fab fragment, as in Example 2 a)
# T2 construct: also called cynomolgus PD-L1-Fc; cynoPD-L1 (ECD)-huFc
# [3] = biological target: T1, OneArmed-huPD-L1_ECD_Fc_LALAPG …; test: SPR, Fab fragment, as in Example 2 a)
Kd [1] [nM],Kd [2] [nM],koff [2] [s⁻¹],kon [2] [M⁻¹ s⁻¹],Kd [3] [nM],koff [3] [s⁻¹],kon [3] [M⁻¹ s⁻¹],Binder
6,–,–,–,–,–,–,"Dutaflip Fab fragment of P1AH1108 (Fab, V domains shown, Dutaflip Fab fragment without IFN-α2 fusion, expressed in E. coli) VH: MSQLVESGGGLVQPGGSLRLSCAANNDIEFNAMSWVRQAPGKGLEWVGSISPKGGSKSIHRKFQGRFTISRDNSKNTLYLQMNSLRAEDTAVYYCARDLGFMDIWGQGTLVTVSS VL: KTQMTQSPSSLSASVGDRVTITCDGTYGISNELAWYQQKPGKAPKLLIYDGEYHDFDVPSRFSGSGSGSDFTLTISSLQPEDFATYYCQQYGNWPHTFGQGTKVEIK"
37,–,–,–,–,–,–,"Dutaflip Fab fragment of P1AH1111 (DutaFab E06P07) (Fab, V domains shown, Fab fragment without IFN-α2 fusion, expressed in E. coli) VH: ARQLVESGGGLVQPGGSLRLSCAASGFHFEEQAMSWVRQAPGKGLEWVGSISPKGGSKSLNRNFNGRFTISRDNSKNTLYLQMNSLRAEDTAVYYCAKDIGFMDGWGQGTLVTVSS VL: YQMTQSPSSLSASVGDRVTITCHGHVFISNYLAWYQQKPGKAPKLLIYDGEWRDFGVPSRFSGSGSDDSFTLTISSLQPEDFATYYCQQYSNWPHTFGQGTKVEIK"
–,0.9,0.00015,160000,0.6,0.00012,200000,"anti-huPD-L1 M14 Fab (P1AI3438) (Fab, V domains shown, Tested as Fab fragment) VH: MTQLVESGGGLVQPGGSLRLSCAADHTTEYNAMSWVRQAPGKGLEWVSAISGSGGSTYYADSVKGRFTISRDNSKNTLYLQMNSLRAEDTAVYYCARDLGFMDVWGQGTLVTVSS VL: DIQMTQSPSSLSASVGDRVTITCRASQSISSYLNWYQQKPGKAPKLLIYDASYHEFGVPSRFSGSGSGTDFTLTISSLQPEDFATYYCQQSYSTPWTFGQGTKVEIK"
